Values of other authors, collected in article PMC10304963.

Experiments:
[1] = molecular target: SIRPα variant 1 (Homo sapiens) (UniProt P78324)
[2] = molecular target: SIRPα variant 2 (Homo sapiens) (UniProt P78324)

CD47 (from UniProt Q08722)
Kd [1]: 740 nM | Kd [2]: 640 nM
